Measured values published in patent US20090018093.
Where two headings read alike, the source gives them in different places.

Test system: Immunoglobulin E (IgE) (Homo sapiens), P01854-1
Assay: filter
[1] = 2'-OMe/2'-deoxy mix, 3:21 pair changed, DPBS Mg/Ca, 0.1 mg/mL BSA, RT

Immunoglobulin E (IgE) (Homo sapiens), P01854-1, sequence (P01854 other isoform, or with tags, fused parts or gaps): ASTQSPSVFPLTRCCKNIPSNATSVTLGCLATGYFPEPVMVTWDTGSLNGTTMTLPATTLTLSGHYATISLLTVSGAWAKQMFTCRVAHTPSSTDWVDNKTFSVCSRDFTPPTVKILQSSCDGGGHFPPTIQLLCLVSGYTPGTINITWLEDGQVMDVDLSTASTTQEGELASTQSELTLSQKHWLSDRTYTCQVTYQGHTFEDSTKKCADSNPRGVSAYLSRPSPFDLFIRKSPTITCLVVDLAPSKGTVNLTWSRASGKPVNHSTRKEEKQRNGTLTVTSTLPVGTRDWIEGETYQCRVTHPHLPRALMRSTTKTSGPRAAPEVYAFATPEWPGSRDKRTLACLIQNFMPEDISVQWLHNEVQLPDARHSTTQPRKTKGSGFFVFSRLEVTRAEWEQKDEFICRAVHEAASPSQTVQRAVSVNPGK

Sequence: AGCCUGGGGACCCAUGGGGGGCU [ARC3266]
- Kd (ARC1666 pattern with 2'-OMe G8 and 2'-OMe I16, 3' idT [inosine (written G) at 16 (2'-OMe I),18,20 (dI), 2'-OMe 1-5,7,8,10-17,22,23, deoxy 6,9,18-21, PS 8/9,15/16,16/17,18/19,20/21, 3' inverted dT left out], dPBS Ca/Mg + BSA, RT): 1300 pM

Sequence: AGCCUGGGGACCCAUGGGGGGCU [ARC3270]
- Kd (ARC1666 pattern with 2'-OMe G9 and extra PS after G21, C22 and U23, 3' idT [dI (written G) at 16,18,20, 2'-OMe 1-5,7,9,10-15,17,22,23, deoxy 6,8,16,18-21, PS 8/9,15/16,16/17,18/19,20/21,21/22,22/23,23/idT, 3' inverted dT left out], dPBS Ca/Mg + BSA, RT): 40 pM

Sequence: AGCCUGGGNGACCCAUNNNGNNGNNGCUN [ARC3264]
- Kd (ARC1666 chemistry with 2'-OMe I16, 3' idT, DPBS Mg/Ca, BSA, RT): 360 pM

Sequence: AGCCUGGGNGACCCAUNNNGNNGNNGCUN [ARC3265]
- Kd (ARC1666 chemistry with 2'-OMe G8,G9, 3' idT, DPBS Mg/Ca, BSA, RT): 290 pM

Sequence: AGCCUGGGNGACCCAUNNNGNNGNNGCUN [ARC3267]
- Kd (ARC1666 chemistry with 2'-OMe G9,I16, 3' idT, DPBS Mg/Ca, BSA, RT): 200 pM

Sequence: AGCCUGGGNGACCCAUNNNGNNGNNGCUN [ARC3268]
- Kd (ARC1666 chemistry with 2'-OMe G8,G9,I16, 3' idT, DPBS Mg/Ca, BSA, RT): 600 pM

Sequence: AGCCUGGGNGACCCAUNNNGNNGNNGCUNN [ARC2369]
- Kd (ARC1666 pattern, 3'-NH-PEG20K, no idT, dPBS Ca/Mg + BSA, RT): 30 pM

Sequence: AGCCUGGGNGACCCAUNNNGNNGNNGNCNUN [ARC2341]
- Kd (ARC1666 chemistry + PS 21-22,22-23, 3' idT, DPBS Mg/Ca, BSA, RT): 50 pM

Sequence: AGCCUGGGNGACCCAUNNNGNNGNNGNCNUNN [ARC2342]
- Kd (ARC1666 chemistry + PS 21-22,22-23,23-idT, 3' idT, second independent measurement 0.04 nM): 190 pM

Sequence: AGCCUGGGNGACCCAUNNNGNNGNNGNCNUNN [ARC3269]
- Kd (ARC2342 chemistry with 2'-OMe G8, 3' idT, DPBS Mg/Ca, BSA, RT): 520 pM

Sequence: AGCCUGGGNGACCCAUNNNGNNGNNGNCNUNN [ARC3271]
- Kd (ARC2342 chemistry with 2'-OMe I16, 3' idT, DPBS Mg/Ca, BSA, RT): 230 pM

Sequence: AGCCUGGGNGACCCAUNNNGNNGNNGNCNUNN [ARC3272]
- Kd (ARC2342 chemistry with 2'-OMe G8,G9, 3' idT, DPBS Mg/Ca, BSA, RT): 120 pM

Sequence: AGCCUGGGNGACCCAUNNNGNNGNNGNCNUNN [ARC3273]
- Kd (ARC2342 chemistry with 2'-OMe G8,I16, 3' idT, DPBS Mg/Ca, BSA, RT): 860 pM

Sequence: AGCCUGGGNGACCCAUNNNGNNGNNGNCNUNN [ARC3274]
- Kd (ARC2342 chemistry with 2'-OMe G9,I16, 3' idT, DPBS Mg/Ca, BSA, RT): 120 pM

Sequence: AGCCUGGGNGACCCAUNNNGNNGNNGNCNUNN [ARC3275]
- Kd (ARC2342 chemistry with 2'-OMe G8,G9,I16, 3' idT, DPBS Mg/Ca, BSA, RT): 670 pM

Sequence: AGCCUGGGNGACCCAUNNNGNNGNNGNCUN [ARC2340]
- Kd (ARC1666 pattern plus PS between G21 and C22, 3' idT, dPBS Ca/Mg + BSA, RT): 80 pM

Sequence: AGCCUGGGNGACCCAUNNNGNNGNNNGCUN [ARC2983]
- Kd (ARC1666 chemistry + PS 19-20, 3' idT, DPBS Mg/Ca, BSA, RT): 20 pM

Sequence: AGCCUGGGNGACCCAUNNNGNNNGNNGCUN [ARC2982]
- Kd (ARC1666 chemistry + PS 17-18, 3' idT, DPBS Mg/Ca, BSA, RT): 30 pM

Sequence: AGCCUGGGNGACCCNAUNNNGNNGNNGCUN [ARC2980]
- Kd (ARC1666 chemistry + PS 13-14, 3' idT, DPBS Mg/Ca, BSA, RT): 40 pM

Sequence: AGCCUGGGNGACCNCAUNNNGNNGNNGCUN [ARC2979]
- Kd (ARC1666 chemistry + PS 12-13, 3' idT, DPBS Mg/Ca, BSA, RT): 50 pM

Sequence: AGCCUGGGNGACNCCAUNNNGNNGNNGCUN [ARC2978]
- Kd (ARC1666 chemistry + PS 11-12, 3' idT, DPBS Mg/Ca, BSA, RT): 50 pM

Sequence: AGCCUGGGNGANCCCAUNNNGNNGNNGCUN [ARC2977]
- Kd (ARC1666 chemistry + PS 10-11, 3' idT, DPBS Mg/Ca, BSA, RT): 50 pM

Sequence: AGCCUGGGNGNACCCAUNNNGNNGNNGCUN [ARC2976]
- Kd (ARC1666 pattern plus PS between G9 and A10, 3' idT, dPBS Ca/Mg + BSA, RT): 300 pM

Sequence: AGCCUGGNGNGACCCAUNNNGNNGNNGCUN [ARC2975]
- Kd (ARC1666 chemistry + PS 7-8, 3' idT, DPBS Mg/Ca, BSA, RT): 40 pM

Sequence: AGCCUGNGGNGACCCAUNNNGNNGNNGCUN [ARC2974]
- Kd (ARC1666 chemistry + PS 6-7, 3' idT, DPBS Mg/Ca, BSA, RT): 70 pM

Sequence: AGCCUNGGGNGACCCAUNNNGNNGNNGCUN [ARC2973]
- Kd (ARC1666 chemistry + PS 5-6, 3' idT, DPBS Mg/Ca, BSA, RT): 50 pM

Sequence: AGCNCUGGGNGACCCAUNNNGNNGNNGCUN [ARC2971]
- Kd (ARC1666 chemistry + PS 3-4, 3' idT, DPBS Mg/Ca, BSA, RT): 60 pM

Sequence: AGGCUGGGGACCCAUGGGGGCCU [ARC1244]
- Kd (dRmY, dPBS Ca/Mg + BSA, RT): 450000 pM

Sequence: AGGCUGGGGACCCAUGGGGGCCU [ARC1245]
- Kd [1]: 198000 pM

Sequence: AGNCCUGGGNGACCCAUNNNGNNGNNGCUN [ARC2970]
- Kd (ARC1666 chemistry + PS 2-3, 3' idT, DPBS Mg/Ca, BSA, RT): 40 pM

Sequence: AGUAGCCUGGGGACCCAUGGGGGGCUACU [ARC3276]
- Kd (mAmGmUmAmGmCmCmUdGmGdG-s-dGmAmCmCmCmAmU-s-dI-s-mGdI-s-dGdI-s-dGmCmUmAmCmU [dI (written G) at 19,21,23, 2'-OMe 1-8,10,13-18,20,25-29, deoxy 9,11,12,19,21-24, PS 11/12,18/19,19/20,21/22,23/24, 3' inverted dT left out], dPBS Ca/Mg + BSA, RT): 30 pM

Sequence: AGUCUGGGGACCCAUGGGGGACU [ARC1246]
- Kd [1]: 34000 pM

Sequence: AGUCUGGGGACCCAUGGGGGACU [ARC1247]
- Kd [1]: 192000 pM

Sequence: ANGCCUGGGNGACCCAUNNNGNNGNNGCUN [ARC2969]
- Kd (ARC1666 chemistry + PS 1-2, 3' idT, DPBS Mg/Ca, BSA, RT): 90 pM

Sequence: GCGGGCAAATTCATCCGTCCCTCCTAGTGGTTTGCCC [DNA clone SEQ 147]
- Kd: 500 pM

Sequence: GGAAUCAUACACAAGACGUCAGUAAGAUUGAGUGUAUGGUU [rRfY minimer SEQ 96]
- Kd (2'-F C and U, KD2 39.7 nM, 1xSHMCK + tRNA): 365 pM

Sequence: GGAAUCAUACACAAGACGUCAGUAAGAUUGAGUGUAUGGUUCC [rRfY minimer SEQ 95]
- Kd (2'-F C and U, KD2 117.2 nM, 1xSHMCK + tRNA): 4500 pM

Sequence: GGAAUCAUACACAAGACGUCGCCAGAUUGAGUGUCGUGGUU [rRfY minimer SEQ 92]
- Kd (2'-F C and U, KD2 22.0 nM, 1xSHMCK + tRNA): 250 pM

Sequence: GGAUCCGAGGGUGGGCAAUAGGCUCACAAGGGUCC [rRfY minimer SEQ 94]
- Kd (2'-F C and U, KD2 26.5 nM, 1xSHMCK + tRNA): 1010 pM

Sequence: GGGAAAAGCGAAUCAUACACAAGACGUGAGCAUAUCAUUGAGUGUAGUGGUUCCGGAGUAAGUCGCUCCGCCAGAGACCAACCGAGAA [rRfY clone SEQ 15]
- Kd (2'-F C and U, biphasic, KD2 19.0 nM, 1xSHMCK + tRNA, RT): 115 pM

Sequence: GGGAAAAGCGAAUCAUACACAAGAGUGCAAGAAGUGCAUUGCUGUGUCUGGUUCUUGGCGAUGUGCUCCGCCAGAGACCAACCGAGAA [rRfY clone SEQ 17]
- binding signal (2'-F C,U, ratio bound +/- 20 nM IgE): 0.76

Sequence: GGGAGAGGAGAGAACGUUCUACAAGCAGUUCUGGGGACCCAUGGGGGAAGUGCGCUGUCGAUCGAUCGAUCGAUG [ARC1992]
- Kd (dRmY: 2'-deoxy A,G, 2'-OMe C,U, error 8, dPBS Ca/Mg + BSA, RT): 10000 pM

Sequence: GGGAGAGGAGAGAACGUUCUACACUCUGGGGACCCGUGGGGGAGUGCAGCAACGCUGUCGAUCGAUCGAUCGAUG [ARC2005]
- Kd (dRmY: 2'-deoxy A,G, 2'-OMe C,U, error 3, dPBS Ca/Mg + BSA, RT): 5000 pM

Sequence: GGGAGAGGAGAGAACGUUCUACAGGCAGUUCUGGGGACCCAUGGGGGAAGUGCGCUGUCGAUCGAUCGAUCGAUG [ARC1991]
- Kd (dRmY: 2'-deoxy A,G, 2'-OMe C,U, error 2, dPBS Ca/Mg + 0.1 mg/mL BSA, RT, 87.7 nM with 1 mg/mL tRNA + ssDNA competitor (p280)): 2000 pM

Sequence: GGGAGAGGAGAGAACGUUCUACAUUGUGCUCCUGGGGCCCAGUGGGGAGCCACGCUGUCGAUCGAUCGAUCGAUG [ARC1995]
- Kd (dRmY: 2'-deoxy A,G, 2'-OMe C,U, error 2, dPBS Ca/Mg + BSA, RT): 4000 pM

Sequence: GGGAGAGGAGAGAACGUUCUACCAACGGCAUCCUGGGCCCCACAGGGGAUGUCGCUGUCGAUCGAUCGAUCGAUG [ARC2002]
- Kd (dRmY: 2'-deoxy A,G, 2'-OMe C,U, error 6, dPBS Ca/Mg + BSA, RT): 8000 pM

Sequence: GGGAGAGGAGAGAACGUUCUACCCGCAGCAUAGCCUGGGGACCCAUGGGGGGCGCUGUCGAUCGAUCGAUCGAUG [ARC1994]
- Kd (dRmY: 2'-deoxy A,G, 2'-OMe C,U, error 5, dPBS Ca/Mg + BSA, RT, 109.7 nM with tRNA + ssDNA competitor (p280)): 5000 pM

Sequence: GGGAGAGGAGAGAACGUUCUACGAGCAGCCCUGGGGCCCGGAGGGGGAUGGUCGCUGUCGAUCGAUCGAUCGAUG [ARC1993]
- Kd (dRmY: 2'-deoxy A,G, 2'-OMe C,U, error 4, dPBS Ca/Mg + BSA, RT): 9000 pM

Sequence: GGGAGAGGAGAGAACGUUCUACGAUCUGGGCGAGCCAGUCUGACUGAGGAAGCGCUGUCGAUCGAUCGAUCGAUGAAGGGCG [rRmY clone SEQ 56]
- Kd (2'-OMe C,U, 2'-OH A,G, DPBS, 0.1 mg/mL tRNA, RT): 500000 pM

Sequence: GGGAGAGGAGAGAACGUUCUACGCAGCGCAUCUGGGGACCCAAGAGGGGAUUCGCUGUCGAUCGAUCGAUCGAUG [ARC2001]
- Kd (dRmY: 2'-deoxy A,G, 2'-OMe C,U, error 0.1, dPBS Ca/Mg + BSA, RT): 18000 pM

Sequence: GGGCAACTTTATCCGTTCCTCTTAGTGGGTTGCCCC [DNA clone SEQ 139]
- Kd: 400 pM

Sequence: GGGCTACTTTATCCGTCCCTCCTAGTGGGTAGCCCC [DNA clone SEQ 140]
- Kd: 200 pM

Sequence: GGGCTACTTTATCCGTTCCTCCTAGTGGGTAGCCCT [ARC1306]
- Kd (2'-OMe stem block as printed in Table 18, 3' idT [2'-OMe: stem block (exact positions not given in the material), 36 = 3' inverted dT], DPBS Mg/Ca, BSA): 14000 pM

Sequence: GGGGCACATTCATCCGTCCCTCCTAGTGGTGTGCTCC [DNA clone SEQ 128]
- Kd: 500 pM

Sequence: GGGGCACATTTATCCGTCCCTCCTAGTGGTGTGCCCC [DNA clone SEQ 119]
- Kd: 600 pM

Sequence: GGGGCAGCTTTATCCGTACCTCCCAGTGGGCTGCCCC [ARC474]
- Kd: 700 pM

Sequence: GGGGCAGCTTTATCCGTTCCTCCTAGTGGGCTGCCTC [DNA clone SEQ 131]
- Kd: 300 pM
